From article doi:10.1101/2025.03.16.643542 (bioRxiv, 2025) come the findings set out here.

The target in this experiment is epidermal growth factor receptor (EGFR) on EGFR^hi A431 cells (Homo sapiens, A431 cells, UniProt P00533). Description: flow cytometry on cells. (Flow cytometry measures light scatter and fluorescence of single cells or particles in a stream.)

B1: nanobody 5B1 (VHH)
VHH: QVQLQESGGGLVQAGDSLRLSCAASGRTFSTYTMGWFRQAPGKEREFVAGIGYSDDNTYYTDSVKGRFTVSRGSAKNTVYLQMNSLKPEDTAVYYCAARVGDVVFTIADNYAYWGQGTQVTVSS
In general, EC50 refers to the concentration giving half of the maximal effect. Molecule B1 displayed a 50% effective concentration (EC50) of 76.9 nM.

B2: nanobody 5B12 (VHH)
VHH: QVQLQESGGGLVQTGDSLRLSCAASGGTLTSYNMGWFRQAPGKDREFVAGISWSGGTGTYYADSVKGRFTISTDNAKNTVYLQMDSLKPDDTAVYYCAVRRRAYSVYTRPGLYDYWGQGTQVTVSS
For the molecule B2, a half-maximal response (EC50) required 4.7 nM.
